Experimental data taken from patent publication US10682427B2, “Intra-operative imaging” (BRACCO IMAGING S.P.A., priority 2014, dated 2020).
Read-outs that look alike come from different tables or passages of the source.

Experiment: Plasma kinetic after single intravenous administration (HPLC with fluorimetric detector)
Format: in vivo, CD-1(ICR)BR mice
Settings: mice; for plasma concentration (mean from a triplicate result): LOD=0.0012 nmol/mL; for clearance: read-out: total plasma clearance; for Vd: read-out: volume distribution at steady state (Vdss)
Protocol: The plasma kinetic of the NIRF probe DA364 was evaluated after a single intravenous administration in CD-1(ICR)BR mice.
The fluorescent probe is administered at dose of 0.4 μmol/kg, corresponding to about 10 times the effective dose used in imaging studies (1 nmol/mouse, considering an average mouse body weight of 25 g). Animals were sacrificed at different time points up to and including 14 days after treatment and blood samples were collected for the determination of DA364 content, performed by using an HPLC method coupled with a fluorimetric detector.
The NIR agent DA364, pre-warmed at room temperature, was intravenously injected at a dose of 0.4 μmol/kg, via tail vein, at an injection rate of 1 mL/min with a Harvard infusion pump. The administered dose corresponds to about 10 times the effective dose used in imaging studies. The intravenous administration route was chosen as possible route of exposure for humans.
Animals (three for each time point) were sacrificed before and 5 min, 10 min, 20 min, 30 min, 60 min, 4 h, 24 h, 48 h, 7 days and 14 days after DA364.
The day of sacrifice animals were anesthetized with sevoflurane, at an expiratory concentration of 3-4% in induction and 2-3% in maintenance and then sacrificed by decapitation. Blood for HPLC determinations (at least 0.5 mL) was collected using heparinized tubes. Plasma obtained after centrifugation (2100 g for 10 min) was stored at −80° C. until the day of analysis.
Determination of the amount of DA364 in plasma samples was carried out by an HPLC method coupled with a fluorimetric detector previously prompted.
Plasma samples (S) were prepared by adding 100 μL of acetate buffer and 100 μL of a Methanol Acetonitrile solution (50:50) to 100 μL of diluted plasma. Tubes will be stirred and subsequently centrifuged at 4° C. for 10 minutes at 13000 g. Ten microliters of the clear supernatant will be injected into the HPLC equipment. Appropriate dilution was performed in case of plasma samples too concentrated.
The HPLC determination was performed by interpolating calibration curves of DA364 in plasma and organs, prepared by assaying calibration standard samples (CAL) (6 concentrations, 3 replicates for each concentration) of the fluorescent agent DA364.
Blood for HPLC determinations (at least 0.5 mL) was collected in heparinized tubes. Plasma concentration of DA364 was measured by an HPLC method coupled with a fluorimetric detector.
To evaluate the systemic exposure, Cmax and the area under the plasma DA364 concentration curve as a function of time (AUC) were calculated by non-parametric methods using the computer program WIN-NONLIN 6.3 (WinNonlin 6.3 SCI Software, Lexington, Ky., USA). For the tested dose, a non-compartmental analysis was performed using the average plasma concentrations from 3 animals for each time point. For Cmax and the corresponding tmax the observed values were reported. Area under the plasma concentration-time curve to the last observable plasma concentration (AUC(0 to t)) was calculated from observed data using the logarithmic trapezoidal method. […].

[1] = CD-1(ICR)BR, mouse, plasma, iv, 0.4 umol/kg, 0.4 μmol/kg i.v.
[2] = CD-1(ICR)BR, mouse, plasma, iv, 0.4 umol/kg, 0.4 μmol/kg i.v., per animal

Structure (SMILES): CC[N+]1=C(/C=C/C=C/C=C2/N(CCCCCC(=O)NC[C@@H]3C[C@@H]4CC[C@H]5C(=O)N[C@@H](CCCNC(=N)N)C(=O)NCC(=O)N[C@@H](CC(=O)O)C(=O)N[C@H]3C(=O)N45)c3ccc4c(S(=O)(=O)O)cc(S(=O)(=O)O)cc4c3C2(C)C)C(C)(C)c2c1ccc1c(S(=O)(=O)[O-])cc(S(=O)(=O)O)cc21 [DA364]
- plasma concentration (mean from a triplicate result) (1440 min after 0.4 μmol/kg i.v.): <LOD
- plasma concentration (mean from a triplicate result) (2880 min after 0.4 μmol/kg i.v.): <LOD
- plasma concentration (mean from a triplicate result) (10080 min after 0.4 μmol/kg i.v.): <LOD
- plasma concentration (mean from a triplicate result) (20160 min after 0.4 μmol/kg i.v.): <LOD
- AUC(0-inf) [1]: 1.28 µM·h
- Cmax [1]: 1630 nM
- Tmax [1]: 5 min
- clearance [2]: 0.15 mL/min
- Vd [2]: 0.01 L
- half-life (CD-1(ICR)BR, mouse, plasma, iv, 0.4 umol/kg, 0.4 μmol/kg i.v., read-out: half life associated with the terminal elimination phase): 64 min
- clearance [1]: 5 mL/min/kg
- Vd [1]: 0.329 L/kg
- level at time molar at 5 min (CD-1(ICR)BR, mouse, plasma, iv, 0.4 umol/kg, 5 min after 0.4 μmol/kg i.v., read-out: plasma concentration (mean from a triplicate result)): 1630 nM
- level at time molar at 10 min (CD-1(ICR)BR, mouse, plasma, iv, 0.4 umol/kg, 10 min after 0.4 μmol/kg i.v., read-out: plasma concentration (mean from a triplicate result)): 1100 nM
- level at time molar at 20 min (CD-1(ICR)BR, mouse, plasma, iv, 0.4 umol/kg, 20 min after 0.4 μmol/kg i.v., read-out: plasma concentration (mean from a triplicate result)): 612 nM
- level at time molar at 0.5 h (CD-1(ICR)BR, mouse, plasma, iv, 0.4 umol/kg, 30 min after 0.4 μmol/kg i.v., read-out: plasma concentration (mean from a triplicate result)): 518 nM
- level at time molar at 1 h (CD-1(ICR)BR, mouse, plasma, iv, 0.4 umol/kg, 60 min after 0.4 μmol/kg i.v., read-out: plasma concentration (mean from a triplicate result)): 278 nM
- level at time molar at 4 h (CD-1(ICR)BR, mouse, plasma, iv, 0.4 umol/kg, 240 min after 0.4 μmol/kg i.v., read-out: plasma concentration (mean from a triplicate result)): 51 nM
